Assay results as given in paper PMC8613188, “Structural insights into bifunctional thaumarchaeal crotonyl-CoA hydratase and 3-hydroxypropionyl-CoA dehydratase from Nitrosopumilus maritimus” (Scientific Reports, 2021).

Biological target: the molecule itself
Assay: crystal structure; apo form, 2.15 Å, space group P32, 6 monomers in the asymmetric unit; crystals from 0.2 M MgCl2, 0.1 M sodium citrate tribasic dihydrate pH 5, 10% w/v PEG, BME added; data at 100 K

B1: Nmar_1308 protein, bifunctional crotonyl-CoA hydratase (CCAH) and 3-hydroxypropionyl-CoA dehydratase (3HPD) from Nitrosopumilus maritimus SCM1 (enzyme)
chain: MSLVTTSTSDGICTVKINRPDKLNAMNTDVAKELIKTFEELNHNDDVKVIILTGEGEKAFSAGADIEYMSKISADESVEYAKTGQLVTATVELVKQPTIAAVNGFALGGGCELAMSCDIRIAADTAKLGQPEVTIGVPPGWGGTQRLMRIVGIAKAKELVYTGKMIKAEEAKEIGLVNHVVPLASLQEEALKMAQQIAGNSTMGVQMSKVAINKGRNADLDTGLGLEILAWRNCFTHPDRQERMTAFVNKSKK
notes: Protein encoded by Nmar_1308 of Nitrosopumilus maritimus SCM1; codon-optimized gene construct from Genscript in pET28a (NdeI/BamHI); 229-237 residues modeled per chain in PDB 7EUM; Homohexamer (dimer of trimers) in the crystal; source: E. coli BL21(Rosetta-2), purified (Ni-NTA, thrombin cleavage, reverse Ni-NTA, Superdex 200); not shown: His6, N-terminal, cleaved
  stoichiometry N: 6
